Results taken from patent US20150174202A1, “Methods and Compositions for Modulating Beta Cell Proliferation” (The Board of Trustees of the Leland Stanford Junior …, priority 2011, published 2015).
“Also recorded” adds a separate entry of the source.

How the values were obtained:
Format in all cases: cell-based
PDGFRA = assay: Pdgfra expression in cultured adult mouse islets exposed to Wnt3a or R-Spondin; details: isolated adult mouse islets (4-5 months of age) in culture
Text: In diverse tissues, including the pancreas, Wnt signaling activates expression of Axin2, a negative regulator of the pathway. […] This spatially and temporally restricted expression pattern is reminiscent of declining Pdgfra, Pdgfrab, and Ezh2 levels and β-cell proliferation in animals (FIG. 22B-D, Chen et al 2009, 2011). Likewise, in mice harboring a ‘Top-Gal’ synthetic reporter gene of Wnt signaling activity, β-galactosidase reporter expression declines in islet β-cells with age (FIG. 22E-G). Thus, changes in Wnt signaling underlie age-dependent reductions of Pdgfr expression and β-cell PDGF signaling competence in β-cells. Consistent with this, culture of isolated adult mouse islets (4-5 months of age) with purified Wnt3a or the Wnt agonist R-Spondin increased Pdgfra mRNA expression. As described above, Pdgfra signaling induced Ezh2 expression in islets. To assess the function of Pdgfra induced by R-Spondin, R-Spondin was added to adult mouse islets, followed by addition of purified PDGF-AA (100 ng/ml), and Ezh2 mRNA levels were then measured.

PDGFRα and PDGFRβ = assay: PDGFR mRNA in cultured adult human islets exposed to Wnt3a or R-Spondin
Ezh2 = assay: Ezh2/Ezh1 expression in cultured mouse islets (real-time RT-PCR, western blot); details: juvenile mouse islets exposed to insulin or prolactin, 2 days
Protocol: Mouse pancreatic islets were purified as described in Chen et al. (2009) Genes Dev. 23, 975-985 and used immediately for assays described in the text. To study Ezh2 induction in cultured islets exposed to mitogens, freshly isolated islets from 2-3-week old, and 7-12-month old C57BL/6 mice were recovered and equilibrated overnight at 37° C., 5% CO2 in RPMI-1640 medium supplemented with 0.5% fetal bovine serum (FBS), 0.2% bovine albumin (BSA) and 2% penicillin/streptomycin. […] Immunostaining of BrdU and insulin was performed on processed islets, and β-cell proliferation rate was determined by quantifying percentage of insulin+ cells with BrdU+. […] RNA concentration was measured with a RiboGreen RNA quantification assay (Invitrogen). One-step quantitative RT-PCR was performed and analysed using an ABI Prism 7300 detection system (Applied Biosystems) with TaqMan one-step RTPCR Master Mix Reagents and appropriate amounts (10-100 ng) of islet total RNA as the template. We calculated the ratio of mRNA for the gene of interest to the amount of internal control mRNA of peptidylprolyl isomerase A (cyclophilin A, PPIA), and then normalized the ratio for each gene to its median. […]

[1] = adult human islets (mean age >40 years), exposed for two days

| Molecule | Pdgfra mRNA expression (PDGFRA) | mRNA levels encoding PDGFRα (PDGFRα and PDGFRβ; [1]) | mRNA levels encoding PDGFRβ (PDGFRα and PDGFRβ; [1]) | dose dependence of induction of PDGFRA and PDGFRB mRNA (PDGFRα and PDGFRβ; cultured adult human islets) | Ezh2 mRNA levels after mitogen exposure (Ezh2) |
| --- | --- | --- | --- | --- | --- |
| Wnt3a: purified Wnt3a protein (protein, UniProt P56704 19-352, looked up) Protein Wnt-3a: SYPIWWSLAVGPQYSSLGSQPILCASIPGLVPKQLRFCRNYVEIMPSVAEGIKIGIQECQHQFRGRRWNCTTVHDSLAIFGPVLDKATRESAFVHAIASAGVAFAVTRSCAEGTAAICGCSSRHQGSPGKGWKWGGCSEDIEFGGMVSREFADARENRPDARSAMNRHNNEAGRQAIASHMHLKCKCHGLSGSCEVKTCWWSQPDFRAIGDFLKDKYDSASEMVVEKHRESRGWVETLRPRYTYFKVPTERDLVYYEASPNFCEPNPETGSFGTRDRTCNVSSHGIDGCDLLCCGRGHNARAERRREKCRCVFHWCCYVSCQECTRVYDVHTCK | increased | increased | increased | depends on the dose | – |
| prolactin (protein, UniProt P01236 29-227, looked up, mitogen capable of promoting β-cell proliferation) Prolactin: LPICPGGAARCQVTLRDLFDRAVVLSHYIHNLSSEMFSEFDKRYTHGRGFITKAINSCHTSSLATPEDKEQAQQMNQKDFLSLIVSILRSWNEPLYHLVTEVRGMQEAPEAILSKAVEIEEQTKRLLEGMELIVSQVHPETKENEIYPVWSGLPSLQMADEESRLSAYYNLLHCLRRDSHKIDNYLKLLKCRIIHNNNC | – | – | – | – | did not detectably alter; also recorded: did not induce |
